Source: patent US20100278832A1 (Chugai, published 2010)

Tests used:
[1] = target: BST2 on human myeloma-derived RPMI8226 cells (human) (UniProt Q10589); test: flow cytometry on RPMI8226 cells, Kd calculated with Prism 4 from percentage of staining at 0.01-10 µg/ml
[2] = target: T1, His-tagged recombinant human BST2 protein K(47)-R(147) (human, UniProt Q10589 47-147); test: Western blot of His-tagged BST2 fragment, 1 µg/ml antibody
T1 construct: Expressed in E. coli BL21(DE3); denatured and reduced for Western blotting; not shown: N-terminal His tag supplied by vector pET32
T1 sequence: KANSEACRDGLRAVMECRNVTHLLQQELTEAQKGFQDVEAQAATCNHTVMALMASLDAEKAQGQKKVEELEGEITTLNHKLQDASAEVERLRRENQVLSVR
Method: (§1) The His-tagged human BST2 proteins (synthesized as described in A) were each dissolved in sample buffer, and heated at 70° C. for ten minutes. The dissolved proteins were fractionated on a 4-20% SDS-PAGE gradient gel (Invitrogen) and transferred onto PVDF membrane (Millipore). The membrane was blocked with BSA and incubated with 1 μg/ml antibody 4LD or 2000× diluted anti-His tag antibody (Novagen). After reaction with an HRP-labeled anti-mouse IgG antibody (Jackson), ECL Detection Reagent (GE Healthcare) was reacted for chemical luminescence, and the His-tagged human BST2 proteins were detected using LAS-1000 from Fuji Film.

[3] = target: T2, His-tagged recombinant human BST2 protein A(132)-Q(180) (human, UniProt Q10589 132-180, not fully specified); test: as above
T2 construct: Expressed in E. coli BL21(DE3); denatured and reduced for Western blotting; also called lane 5: A(132)--Q(180); not shown: N-terminal His tag supplied by vector pET32
T2 chain: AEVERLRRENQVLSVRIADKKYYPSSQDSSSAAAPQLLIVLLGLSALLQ
Method: as §1

[4] = target: T3, His-tagged recombinant human BST2 protein S(131)-Q(180) (human, UniProt Q10589 131-180, not fully specified); test: as above
T3 construct: Expressed in E. coli BL21(DE3); denatured and reduced for Western blotting; also called lane 4: S(131)-Q(180); not shown: N-terminal His tag supplied by vector pET32
T3 chain: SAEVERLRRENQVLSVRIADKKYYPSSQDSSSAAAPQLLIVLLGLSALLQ
Method: as §1

[5] = target: T4, His-tagged recombinant human BST2 protein K(47)-D(150) (human, UniProt Q10589 47-150); test: as above
T4 construct: Expressed in E. coli BL21(DE3); denatured and reduced for Western blotting; also called lane 4: K(47)------D(150); not shown: N-terminal His tag supplied by vector pET32
T4 sequence: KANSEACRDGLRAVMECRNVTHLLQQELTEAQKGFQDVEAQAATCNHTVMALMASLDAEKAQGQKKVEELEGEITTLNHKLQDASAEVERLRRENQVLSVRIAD
Method: as §1

[6] = target: T5, His-tagged recombinant human BST2 protein K(47)-P(155) (human, UniProt Q10589 47-155); test: as above
T5 construct: Expressed in E. coli BL21(DE3); denatured and reduced for Western blotting; also called lane 3: K(47)----------P(155); not shown: N-terminal His tag supplied by vector pET32
T5 sequence: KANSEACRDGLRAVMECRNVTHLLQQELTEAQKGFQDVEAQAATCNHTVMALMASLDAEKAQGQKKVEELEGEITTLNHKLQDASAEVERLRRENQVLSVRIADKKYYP
Method: as §1

[7] = target: T6, His-tagged recombinant human BST2 protein K(47)-A(149) (human, UniProt Q10589 47-149); test: as above
T6 construct: Expressed in E. coli BL21(DE3); denatured and reduced for Western blotting; also called lane 5: K(47)-----A(149); not shown: N-terminal His tag supplied by vector pET32
T6 sequence: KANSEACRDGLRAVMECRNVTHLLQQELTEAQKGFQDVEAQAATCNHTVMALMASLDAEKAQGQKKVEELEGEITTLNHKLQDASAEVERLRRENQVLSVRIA
Method: as §1

[8] = target: T7, His-tagged recombinant human BST2 protein E(133)-Q(180) (human, UniProt Q10589 133-180, not fully specified); test: as above
T7 construct: Expressed in E. coli BL21(DE3); denatured and reduced for Western blotting; not shown: N-terminal His tag supplied by vector pET32
T7 chain: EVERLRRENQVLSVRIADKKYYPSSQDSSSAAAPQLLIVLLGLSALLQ
Method: as §1

[9] = target: T8, His-tagged recombinant human BST2 protein K(47)-I(148) (human, UniProt Q10589 47-148); test: as above
T8 construct: Expressed in E. coli BL21(DE3); denatured and reduced for Western blotting; also called lane 6: K(47)----I(148); not shown: N-terminal His tag supplied by vector pET32
T8 sequence: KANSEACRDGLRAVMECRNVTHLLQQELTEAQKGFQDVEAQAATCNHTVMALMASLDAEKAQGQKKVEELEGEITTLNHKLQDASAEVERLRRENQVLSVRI
Method: as §1

[10] = target: T9, His-tagged recombinant human BST2 protein R(136)-Q(180) (human, UniProt Q10589 136-180, not fully specified); test: Western blot of His-tagged BST2 fragment
T9 construct: Expressed in E. coli BL21(DE3); denatured and reduced for Western blotting; also called lane 9: R(136)------Q(180); not shown: N-terminal His tag supplied by vector pET32
T9 chain: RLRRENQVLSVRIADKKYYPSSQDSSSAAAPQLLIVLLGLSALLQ
Method: as §1

[11] = target: T10, His-tagged recombinant human BST2 protein V(134)-Q(180) (human, UniProt Q10589 134-180, not fully specified); test: Western blot of His-tagged BST2 fragment
T10 construct: Expressed in E. coli BL21(DE3); denatured and reduced for Western blotting; also called lane 7: V(134)----Q(180); not shown: N-terminal His tag supplied by vector pET32
T10 chain: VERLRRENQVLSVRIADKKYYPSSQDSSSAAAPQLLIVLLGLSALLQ
Method: as §1

[12] = target: T11, His-tagged recombinant human BST2 protein E(135)-Q(180) (human, UniProt Q10589 135-180, not fully specified); test: Western blot of His-tagged BST2 fragment
T11 construct: Expressed in E. coli BL21(DE3); denatured and reduced for Western blotting; also called lane 8: E(135)-----Q(180); not shown: N-terminal His tag supplied by vector pET32
T11 chain: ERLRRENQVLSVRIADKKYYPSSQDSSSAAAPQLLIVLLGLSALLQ
Method: as §1

[13] = target: T12, His-tagged recombinant human BST2 protein K(47)-S(145) (human, UniProt Q10589 47-145); test: Western blot of His-tagged BST2 fragment
T12 construct: Expressed in E. coli BL21(DE3); denatured and reduced for Western blotting; also called lane 9: K(47)-S(145); not shown: N-terminal His tag supplied by vector pET32
T12 sequence: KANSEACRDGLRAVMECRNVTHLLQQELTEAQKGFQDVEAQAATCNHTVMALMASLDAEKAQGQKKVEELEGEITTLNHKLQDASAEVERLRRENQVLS
Method: as §1

[14] = target: T13, His-tagged recombinant human BST2 protein K(47)-V(146) (human, UniProt Q10589 47-146); test: Western blot of His-tagged BST2 fragment
T13 construct: Expressed in E. coli BL21(DE3); denatured and reduced for Western blotting; also called lane 8: K(47)--V(146); not shown: N-terminal His tag supplied by vector pET32
T13 sequence: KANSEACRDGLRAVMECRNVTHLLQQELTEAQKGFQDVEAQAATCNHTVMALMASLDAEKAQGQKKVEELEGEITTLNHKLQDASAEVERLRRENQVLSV
Method: as §1

[15] = target: T14, His-tagged recombinant human BST2 protein L(137)-Q(180) (human, UniProt Q10589 137-180, not fully specified); test: Western blot of His-tagged BST2 fragment
T14 construct: Expressed in E. coli BL21(DE3); denatured and reduced for Western blotting; also called lane 10: L(137)-------Q(180); not shown: N-terminal His tag supplied by vector pET32
T14 chain: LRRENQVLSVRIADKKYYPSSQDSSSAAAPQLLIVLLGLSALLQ
Method: as §1

human BST2D = target: T15, human BST2D (human, UniProt Q10589 1-161); test: flow cytometry of hybridoma supernatant on 293T cells expressing human BST2D
T15 construct: Transmembrane glycoprotein, splicing variant D, 180 residues; also called type D BST2; BST2D-CHO cells
Method: The hybridoma culture supernatants were analyzed by flow cytometry (FCM). The cells prepared as described in A of Example 1 were suspended in 0.5% BSA/2 mM EDTA/PBS, and collected into centrifuge tubes at 1×10⁵ cells/sample. 40 μl of each hybridoma culture supernatant was added, and the tubes were incubated at room temperature for 30 minutes. Then, a 1-ml aliquot of 0.5% BSA/2 mM EDTA/PBS was added to each tube, the tubes were centrifuged for three minutes at 1200 rpm and 4° C., and the supernatants were discarded; this washing process was repeated twice. A 40-μl aliquot of 100× diluted FITC-labeled goat anti-mouse IgG antibody (Beckman coulter; IM0819) was added to each tube after washing. The tubes were incubated at room temperature for 30 minutes. Following two rounds of washing, the hybridoma culture supernatants were analyzed with flow cytometer FC500 (Beckman coulter) to assess whether the antibody in the supernatants could specifically recognize human BST2D. […] The selected hybridomas were cloned by the limiting dilution method. The resulting hybridomas producing mouse anti-human BST2 antibody were named #3LD, #4LD, #7LD, #9LD, and #19LD.

human BST2H = target: T16, human BST2H (human); test: flow cytometry on BST2H-CHO cells
T16 construct: Expressed from pcDNA3.1-hBST2H on CHO-K1 cells (BST2H-CHO line); Splicing variant H, 158 residues; also called type H BST2; BST2H-CHO cells
T16 chain: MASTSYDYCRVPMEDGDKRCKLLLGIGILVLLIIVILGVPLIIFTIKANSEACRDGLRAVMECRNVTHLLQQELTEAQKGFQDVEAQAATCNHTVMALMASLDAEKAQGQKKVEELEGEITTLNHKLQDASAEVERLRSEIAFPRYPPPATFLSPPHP

B1: mouse anti-human BST2 monoclonal antibody #4LD (antibody, V domains shown)
VH: DVQLQESGPGLVKPSQSLSLTCSVTGYSITSGYYWNWIRQFPGNKLEWMGYISYDGSNNYNPSLKNRISITRDTSKNQFFLKLNSVTTEDTATYYCAILGRGYWGQGTTLTVSS
VL: DIVLTQSPASLAVSLGQRATISCRASQSVSTSSYSYMHWYQQKPGQPPKLLIKYASNLESGVPARFSGSGSGTDFTLNIHPVEEEDTATYYCQHSWEIPYTFGGGTKLEIK
notes: Purified from hybridoma #4LD (FERM BP-10964); also called mouse antibody #4LD; anti-human BST2(D+/H-) antibody
0.1 nM: Kd [1]
no binding (tested: 1 µg/ml): binding result [10] | binding result [11] | binding result [12] | binding result [13] | binding result [14] | binding result [15]
binds: binding result [2] | binding result [3] | binding result [4] | binding result [5] | binding result [6] | binding result [7] | binding result [8] | binding result [9] | binding result (human BST2D)
no binding: binding result (human BST2H)
